# Reference: IntAct's records for PubMed 25910212
# B1: E3 ubiquitin-protein ligase Midline-1 (Homo sapiens), O15344 (parent)
# chain: METLESELTCPICLELFEDPLLLPCAHSLCFNCAHRILVSHCATNESVESITAFQCPTCRHVITLSQRGLDGLKRNVTLQNIIDRFQKASVSGPNSPSETRRERAFDANTMTSAEKVLCQFCDQDPAQDAVKTCVTCEVSYCDECLKATHPNKKPFTGHRLIEPIPDSHIRGLMCLEHEDEKVNMYCVTDDQLICALCKLVGRHRDHQVAALSERYDKLKQNLESNLTNLIKRNTELETLLAKLIQTCQHVEVNASRQEAKLTEECDLLIEIIQQRRQIIGTKIKEGKVMRLRKLAQQIANCKQCIERSASLISQAEHSLKENDHARFLQTAKNITERVSMATASSQVLIPEINLNDTFDTFALDFSREKKLLECLDYLTAPNPPTIREELCTASYDTITVHWTSDDEFSVVSYELQYTIFTGQANVVSLCNSADSWMIVPNIKQNHYTVHGLQSGTKYIFMVKAINQAGSRSSEPGKLKTNSQPFKLDPKSAHRKLKVSHDNLTVERDESSSKKSHTPERFTSQGSYGVAGNVFIDSGRHYWEVVISGSTWYAIGLAYKSAPKHEWIGKNSASWALCRCNNNWVVRHNSKEIPIEPAPHLRRVGILLDYDNGSIAFYDALNSIHLYTFDVAFAQPVCPTFTVWNKCLTIITGLPIPDHLDCTEQLP
# partner: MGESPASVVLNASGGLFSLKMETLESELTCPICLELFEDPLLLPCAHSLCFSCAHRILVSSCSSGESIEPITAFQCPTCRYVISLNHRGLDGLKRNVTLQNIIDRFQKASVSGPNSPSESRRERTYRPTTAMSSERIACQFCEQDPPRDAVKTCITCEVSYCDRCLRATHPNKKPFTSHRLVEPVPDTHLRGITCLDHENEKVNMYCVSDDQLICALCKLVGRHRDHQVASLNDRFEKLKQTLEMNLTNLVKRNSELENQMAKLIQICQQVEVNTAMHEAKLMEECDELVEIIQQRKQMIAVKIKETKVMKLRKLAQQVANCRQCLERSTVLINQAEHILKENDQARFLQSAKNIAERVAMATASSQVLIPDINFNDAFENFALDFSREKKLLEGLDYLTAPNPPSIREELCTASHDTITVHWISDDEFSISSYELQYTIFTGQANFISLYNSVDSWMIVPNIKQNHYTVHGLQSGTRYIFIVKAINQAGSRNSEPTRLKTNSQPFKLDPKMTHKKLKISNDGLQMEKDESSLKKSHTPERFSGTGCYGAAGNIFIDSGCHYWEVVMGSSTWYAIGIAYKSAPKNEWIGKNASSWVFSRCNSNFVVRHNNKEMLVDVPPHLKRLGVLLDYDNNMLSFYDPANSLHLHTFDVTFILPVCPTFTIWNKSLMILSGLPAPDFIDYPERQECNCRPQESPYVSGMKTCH
# B2: Progranulin (Homo sapiens), P28799 (parent)
# chain: MWTLVSWVALTAGLVAGTRCPDGQFCPVACCLDPGGASYSCCRPLLDKWPTTLSRHLGGPCQVDAHCSAGHSCIFTVSGTSSCCPFPEAVACGDGHHCCPRGFHCSADGRSCFQRSGNNSVGAIQCPDSQFECPDFSTCCVMVDGSWGCCPMPQASCCEDRVHCCPHGAFCDLVHTRCITPTGTHPLAKKLPAQRTNRAVALSSSVMCPDARSRCPDGSTCCELPSGKYGCCPMPNATCCSDHLHCCPQDTVCDLIQSKCLSKENATTDLLTKLPAHTVGDVKCDMEVSCPDGYTCCRLQSGAWGCCPFTQAVCCEDHIHCCPAGFTCDTQKGTCEQGPHQVPWMEKAPAHLSLPDPQALKRDVPCDNVSSCPSSDTCCQLTSGEWGCCPIPEAVCCSDHQHCCPQGYTCVAEGQCQRGSEIVAGLEKMPARRASLSHPRDIGCDQHTSCPVGQTCCPSLGGSWACCQLPHAVCCEDRQHCCPAGYTCNVKARSCEKEVVSAQPATFLARSPHVGVKDVECGEGHFCHDNQTCCRDNRQGWACCPYRQGVCCADRRHCCPAGFRCAARGTKCLRREAPRWDAPLRDPALRQLL
# partner: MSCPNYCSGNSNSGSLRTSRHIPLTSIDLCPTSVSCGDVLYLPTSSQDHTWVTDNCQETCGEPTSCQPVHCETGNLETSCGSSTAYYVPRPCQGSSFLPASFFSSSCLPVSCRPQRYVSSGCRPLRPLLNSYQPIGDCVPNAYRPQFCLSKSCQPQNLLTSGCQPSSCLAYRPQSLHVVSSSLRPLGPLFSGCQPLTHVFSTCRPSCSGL
# B3: Myozenin-2 (Homo sapiens), Q9NPC6 (parent)
# chain: MLSHNTMMKQRKQQATAIMKEVHGNDVDGMDLGKKVSIPRDIMLEELSHLSNRGARLFKMRQRRSDKYTFENFQYQSRAQINHSIAMQNGKVDGSNLEGGSQQAPLTPPNTPDPRSPPNPDNIAPGYSGPLKEIPPEKFNTTAVPKYYQSPWEQAISNDPELLEALYPKLFKPEGKAELPDYRSFNRVATPFGGFEKASRMVKFKVPDFELLLLTDPRFMSFVNPLSGRRSFNRTPKGWISENIPIVITTEPTDDTTVPESEDL
# Variants of: B1
# Details: with MID2, Q9UJV3-2
row,Variant,effect of a mutation on the interaction
1,K370E,with no effect
2,C266R,with no effect

# Variants of: B2
# Details: with kr261_human KRTAP26-1, Q6PEX3
row,Variant,effect of a mutation on the interaction
1,P248L,with no effect
2,A9D,disrupting interaction strength
3,R432C,disrupting interaction strength
4,P451L,with no effect

# Variants of: B3
# Details: with actn2_human ACTN2, P35609
# Sequence of actn2_human ACTN2, P35609 (P35609 whole entry): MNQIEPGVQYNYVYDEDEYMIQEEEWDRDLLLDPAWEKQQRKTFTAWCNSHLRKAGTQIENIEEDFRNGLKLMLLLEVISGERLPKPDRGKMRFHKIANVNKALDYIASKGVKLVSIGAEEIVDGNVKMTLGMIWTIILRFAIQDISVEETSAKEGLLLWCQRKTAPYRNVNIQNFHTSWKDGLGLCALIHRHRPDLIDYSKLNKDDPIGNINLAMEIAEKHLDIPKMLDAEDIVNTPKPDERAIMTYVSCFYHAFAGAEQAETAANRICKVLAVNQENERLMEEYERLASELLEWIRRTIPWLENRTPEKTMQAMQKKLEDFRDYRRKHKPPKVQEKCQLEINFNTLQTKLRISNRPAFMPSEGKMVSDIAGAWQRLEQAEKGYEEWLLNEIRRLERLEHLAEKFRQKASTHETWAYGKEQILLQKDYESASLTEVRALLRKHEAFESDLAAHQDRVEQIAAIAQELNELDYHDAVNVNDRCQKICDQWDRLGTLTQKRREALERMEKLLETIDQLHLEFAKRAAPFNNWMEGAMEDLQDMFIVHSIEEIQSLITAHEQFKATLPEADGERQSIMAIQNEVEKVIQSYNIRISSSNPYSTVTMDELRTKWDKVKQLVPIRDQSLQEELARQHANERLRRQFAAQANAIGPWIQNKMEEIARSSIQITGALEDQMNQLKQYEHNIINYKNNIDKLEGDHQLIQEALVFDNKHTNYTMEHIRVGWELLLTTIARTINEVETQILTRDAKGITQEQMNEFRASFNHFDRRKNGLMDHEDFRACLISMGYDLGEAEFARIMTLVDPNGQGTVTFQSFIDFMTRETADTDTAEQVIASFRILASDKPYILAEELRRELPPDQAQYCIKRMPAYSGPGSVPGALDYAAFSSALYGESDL
row,Variant,effect of a mutation on the interaction
1,S48P,with no effect
2,I246M,with no effect

# Variants of: B3
# Details: with actn1_human ACTN1, P12814
# Sequence of actn1_human ACTN1, P12814 (P12814 whole entry): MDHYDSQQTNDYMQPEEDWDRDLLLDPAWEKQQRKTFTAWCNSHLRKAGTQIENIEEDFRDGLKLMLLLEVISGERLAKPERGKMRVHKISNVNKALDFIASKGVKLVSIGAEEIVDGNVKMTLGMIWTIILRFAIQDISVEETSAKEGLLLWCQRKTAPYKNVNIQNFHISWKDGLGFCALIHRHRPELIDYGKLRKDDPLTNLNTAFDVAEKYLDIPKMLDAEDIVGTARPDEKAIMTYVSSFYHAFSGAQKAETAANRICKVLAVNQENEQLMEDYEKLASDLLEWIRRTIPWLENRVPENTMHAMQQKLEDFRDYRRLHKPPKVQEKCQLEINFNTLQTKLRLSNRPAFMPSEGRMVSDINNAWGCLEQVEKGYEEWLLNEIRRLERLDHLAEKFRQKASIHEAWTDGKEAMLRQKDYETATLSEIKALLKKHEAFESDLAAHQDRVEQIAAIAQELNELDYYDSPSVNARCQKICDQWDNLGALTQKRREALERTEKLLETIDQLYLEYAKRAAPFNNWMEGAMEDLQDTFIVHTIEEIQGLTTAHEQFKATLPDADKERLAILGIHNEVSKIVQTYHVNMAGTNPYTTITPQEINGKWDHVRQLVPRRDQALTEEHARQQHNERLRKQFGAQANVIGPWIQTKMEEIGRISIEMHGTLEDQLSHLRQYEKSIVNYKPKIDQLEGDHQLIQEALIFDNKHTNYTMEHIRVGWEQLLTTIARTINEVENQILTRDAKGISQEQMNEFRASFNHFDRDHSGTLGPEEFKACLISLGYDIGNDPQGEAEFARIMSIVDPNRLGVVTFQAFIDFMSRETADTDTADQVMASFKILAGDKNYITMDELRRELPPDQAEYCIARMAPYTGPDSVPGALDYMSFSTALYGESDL
row,Variant,effect of a mutation on the interaction
1,S48P,with no effect
2,I246M,with no effect

# Variants of: B3
# Details: with actn4_human ACTN4, O43707
# Sequence of actn4_human ACTN4, O43707 (O43707 whole entry): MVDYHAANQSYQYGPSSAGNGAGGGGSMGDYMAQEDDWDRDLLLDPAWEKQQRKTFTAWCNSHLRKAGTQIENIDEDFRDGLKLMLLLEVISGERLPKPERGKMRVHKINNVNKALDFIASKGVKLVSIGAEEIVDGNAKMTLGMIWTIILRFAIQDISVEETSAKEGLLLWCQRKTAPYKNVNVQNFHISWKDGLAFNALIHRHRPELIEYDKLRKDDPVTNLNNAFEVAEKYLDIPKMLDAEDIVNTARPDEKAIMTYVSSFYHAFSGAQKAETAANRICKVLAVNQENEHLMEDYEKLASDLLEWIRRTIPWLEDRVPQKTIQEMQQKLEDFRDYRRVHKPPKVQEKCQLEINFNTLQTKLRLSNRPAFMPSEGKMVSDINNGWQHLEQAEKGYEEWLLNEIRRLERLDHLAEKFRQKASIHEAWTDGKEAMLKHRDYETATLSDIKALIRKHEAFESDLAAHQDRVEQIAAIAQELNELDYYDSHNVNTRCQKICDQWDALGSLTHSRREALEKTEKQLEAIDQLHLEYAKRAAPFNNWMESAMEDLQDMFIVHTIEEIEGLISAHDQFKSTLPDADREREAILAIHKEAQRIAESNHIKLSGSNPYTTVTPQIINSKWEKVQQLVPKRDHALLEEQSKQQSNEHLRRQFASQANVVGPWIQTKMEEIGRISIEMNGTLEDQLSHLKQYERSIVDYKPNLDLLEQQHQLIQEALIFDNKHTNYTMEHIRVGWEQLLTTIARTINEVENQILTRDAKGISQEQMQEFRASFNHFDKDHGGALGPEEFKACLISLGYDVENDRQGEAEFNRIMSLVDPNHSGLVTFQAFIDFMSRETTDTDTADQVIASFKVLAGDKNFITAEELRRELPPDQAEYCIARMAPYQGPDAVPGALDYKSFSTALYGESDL
row,Variant,effect of a mutation on the interaction
1,S48P,with no effect
2,I246M,with no effect
